{
  "source": "paper PMC5121451",
  "about": "“NADP-Dependent Aldehyde Dehydrogenase from Archaeon Pyrobaculum sp.1860: Structural and Functional Features” (Archaea, 2016)",
  "key": {"AlDHPyr1147 [1]": {"molecular_target": "T1, AlDHPyr1147 (Pyrobaculum ferrireducens, UniProt G7VCG0)", "T1 construct": "gene P186_1147; homotetramer", "T1 sequence (G7VCG0 1-491)": "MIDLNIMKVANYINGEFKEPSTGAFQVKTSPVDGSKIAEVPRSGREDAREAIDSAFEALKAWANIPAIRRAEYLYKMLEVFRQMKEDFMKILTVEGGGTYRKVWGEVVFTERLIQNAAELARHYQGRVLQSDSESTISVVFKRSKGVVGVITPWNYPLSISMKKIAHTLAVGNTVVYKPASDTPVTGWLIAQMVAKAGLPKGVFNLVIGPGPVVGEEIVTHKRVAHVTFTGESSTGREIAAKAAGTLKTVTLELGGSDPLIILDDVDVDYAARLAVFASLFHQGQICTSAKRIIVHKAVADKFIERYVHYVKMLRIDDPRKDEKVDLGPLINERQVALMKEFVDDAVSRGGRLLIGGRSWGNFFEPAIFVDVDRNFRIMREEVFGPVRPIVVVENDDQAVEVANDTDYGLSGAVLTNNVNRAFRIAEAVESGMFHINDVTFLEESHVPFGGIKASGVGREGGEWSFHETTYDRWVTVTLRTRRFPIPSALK", "assay": "spectrofluorimetric titration of apo form", "assay_type": "binding", "text": "spectrofluorimetric titration of apo form on AlDHPyr1147 | spectrofluorimetric titration of the apo form of AlDHPyr1147 with NADP+"}, "[2]": {"molecular_target": "NADP-dependent aldehyde dehydrogenase AlDHPyr1147 from archaeon Pyrobaculum sp.1860 (Pyrobaculum sp.1860)", "assay": "SEC; gel filtration of AlDHPyr1147 as isolated (with bound coenzyme); analytical column 10/300 GL, 50 mM sodium pyrophosphate pH 8.8, 100 mM NaCl, 22°C"}, "[3]": {"molecular_target": "NADP-dependent aldehyde dehydrogenase AlDHPyr1147 from archaeon Pyrobaculum sp.1860 (Pyrobaculum sp.1860)", "assay": "SEC; gel filtration of the apo form (coenzyme removed by heating at 85°C for 10-15 min), at room temperature"}, "[4]": {"molecular_target": "NADP-dependent aldehyde dehydrogenase AlDHPyr1147 from archaeon Pyrobaculum sp.1860 (Pyrobaculum sp.1860)", "assay": "crystal structure; apo form, three binary complexes with coenzyme (Holo-1, Holo-2, Holo-3) and ternary complex with NADP+ and isobutyraldehyde; space group P2(1)2(1)2, eight subunits (two tetramers) per asymmetric unit"}, "AlDHPyr1147 [5]": {"molecular_target": "T1, AlDHPyr1147", "assay": "spectrophotometric NADPH formation at […] nm", "assay_type": "biochemical", "details": "0.084 μM enzyme, 0.3 mM NADP+, 9 mM isobutyraldehyde, pH 8.8, 60 °C"}, "purified protein [6]": {"substrate": "CC(C)C=O", "assay": "purified protein", "details": "0.3 mM NADP+, 50 mM sodium pyrophosphate pH 8.8, 100 mM NaCl, 60 °C"}, "purified protein [7]": {"substrate": "O=C[C@H](O)CO", "assay": "purified protein", "details": "0.3 mM NADP+, 50 mM sodium pyrophosphate pH 8.8, 100 mM NaCl, 60 °C"}, "purified protein [8]": {"substrate": "CCC=O", "assay": "purified protein", "assay_type": "biochemical, Pyrobaculum ferrireducens", "details": "0.3 mM NADP+, 50 mM sodium pyrophosphate pH 8.8, 100 mM NaCl, 60 °C"}, "purified protein [9]": {"substrate": "NC(=O)c1ccc[n+]([C@@H]2O[C@H](COP(=O)(O)OP(=O)(O)OC[C@H]3O[C@@H](n4cnc5c(N)ncnc54)[C@H](OP(=O)(O)O)[C@@H]3O)[C@@H](O)[C@H]2O)c1", "assay": "purified protein", "assay_type": "biochemical, Pyrobaculum ferrireducens", "details": "60 °C, isobutyraldehyde oxidation, standard assay, 50 mM sodium pyrophosphate pH 8.8, 100 mM NaCl, varied: cofactor"}},
  "data": [
    {"molecule": "NC(=O)c1ccc[n+]([C@@H]2O[C@H](COP(=O)(O)OP(=O)(O)OC[C@H]3O[C@@H](n4cnc5c(N)ncnc54)[C@H](OP(=O)(O)O)[C@@H]3O)[C@@H](O)[C@H]2O)c1", "note": "[NADP+]", "values": [
      {"measurement": "Kd", "setting": "AlDHPyr1147 [1]", "result": "0.6 ± 0.08", "unit": "µM"}
    ]},
    {"molecule": "NADP-dependent aldehyde dehydrogenase AlDHPyr1147 from archaeon Pyrobaculum sp.1860 (enzyme)", "values": [
      {"measurement": "stoichiometry N", "setting": "[2]", "result": 4},
      {"measurement": "stoichiometry N", "setting": "[3]", "result": 4},
      {"measurement": "stoichiometry N", "setting": "[4]", "result": 4}
    ]},
    {"molecule": "NC(=O)C1=CN([C@@H]2O[C@H](COP(=O)(O)OP(=O)(O)OC[C@H]3O[C@@H](n4cnc5c(N)ncnc54)[C@H](OP(=O)(O)O)[C@@H]3O)[C@@H](O)[C@H]2O)C=CC1", "note": "[NADPH]", "values": [
      {"measurement": "% decrease in activity at 0.08 mM", "setting": "AlDHPyr1147 [5]", "result": 20, "unit": "%"}
    ]},
    {"molecule": "AlDHPyr1147 (Pyrobaculum ferrireducens) (protein, homotetramer) MIDLNIMKVANYINGEFKEPSTGAFQVKTSPVDGSKIAEVPRSGREDAREAIDSAFEALKAWANIPAIRRAEYLYKMLEVFRQMKEDFMKILTVEGGGTYRKVWGEVVFTERLIQNAAELARHYQGRVLQSDSESTISVVFKRSKGVVGVITPWNYPLSISMKKIAHTLAVGNTVVYKPASDTPVTGWLIAQMVAKAGLPKGVFNLVIGPGPVVGEEIVTHKRVAHVTFTGESSTGREIAAKAAGTLKTVTLELGGSDPLIILDDVDVDYAARLAVFASLFHQGQICTSAKRIIVHKAVADKFIERYVHYVKMLRIDDPRKDEKVDLGPLINERQVALMKEFVDDAVSRGGRLLIGGRSWGNFFEPAIFVDVDRNFRIMREEVFGPVRPIVVVENDDQAVEVANDTDYGLSGAVLTNNVNRAFRIAEAVESGMFHINDVTFLEESHVPFGGIKASGVGREGGEWSFHETTYDRWVTVTLRTRRFPIPSALK", "values": [
      {"measurement": "Km", "setting": "purified protein [6]", "result": "0.020 ± 0.003", "unit": "M"},
      {"measurement": "kcat", "setting": "purified protein [6]", "result": 4.1, "unit": "s⁻¹"},
      {"measurement": "kcat/Km", "setting": "purified protein [6]", "result": 200, "unit": "M⁻¹ s⁻¹"},
      {"measurement": "Km", "setting": "purified protein [7]", "result": "0.015 ± 0.006", "unit": "M"},
      {"measurement": "kcat", "setting": "purified protein [7]", "result": 1.2, "unit": "s⁻¹"},
      {"measurement": "kcat/Km", "setting": "purified protein [7]", "result": 80, "unit": "M⁻¹ s⁻¹"},
      {"measurement": "Km", "setting": "purified protein [8]", "result": "0.021 ± 0.0025", "unit": "M"},
      {"measurement": "kcat", "setting": "purified protein [8]", "result": "2.9 ± 0.16", "unit": "s⁻¹"},
      {"measurement": "kcat/Km", "setting": "purified protein [8]", "result": "140 ± 30", "unit": "M⁻¹ s⁻¹"},
      {"measurement": "Km", "setting": "purified protein [9]", "result": "20.9 ± 0.1", "unit": "µM"}
    ]}
  ]
}
